From PMC10830416

Molecular target: LINE-1 ORF2p (L1 ORF2p), wild type (Homo sapiens, UniProt O00370 1-1275)
Assay: cryo-EM structure (3.2 A); dTTP bound as incoming nucleotide; dTTP, dATP, ddGTP 1 mM each; 10 mM MgCl2; BS3 cross-linked; Cryo-EM: 600 nm ORF2p, RNA-DNA duplex 2:1 over protein, 30 mM K-HEPES pH 7.9, 150 mM KCl, 10 mM MgCl2, 5 mM EGTA, 1 mM DTT, 37 C 30 s, then 4 mM BS3 on ice 5 mi

Sequence of LINE-1 ORF2p (L1 ORF2p), wild type (O00370 whole entry): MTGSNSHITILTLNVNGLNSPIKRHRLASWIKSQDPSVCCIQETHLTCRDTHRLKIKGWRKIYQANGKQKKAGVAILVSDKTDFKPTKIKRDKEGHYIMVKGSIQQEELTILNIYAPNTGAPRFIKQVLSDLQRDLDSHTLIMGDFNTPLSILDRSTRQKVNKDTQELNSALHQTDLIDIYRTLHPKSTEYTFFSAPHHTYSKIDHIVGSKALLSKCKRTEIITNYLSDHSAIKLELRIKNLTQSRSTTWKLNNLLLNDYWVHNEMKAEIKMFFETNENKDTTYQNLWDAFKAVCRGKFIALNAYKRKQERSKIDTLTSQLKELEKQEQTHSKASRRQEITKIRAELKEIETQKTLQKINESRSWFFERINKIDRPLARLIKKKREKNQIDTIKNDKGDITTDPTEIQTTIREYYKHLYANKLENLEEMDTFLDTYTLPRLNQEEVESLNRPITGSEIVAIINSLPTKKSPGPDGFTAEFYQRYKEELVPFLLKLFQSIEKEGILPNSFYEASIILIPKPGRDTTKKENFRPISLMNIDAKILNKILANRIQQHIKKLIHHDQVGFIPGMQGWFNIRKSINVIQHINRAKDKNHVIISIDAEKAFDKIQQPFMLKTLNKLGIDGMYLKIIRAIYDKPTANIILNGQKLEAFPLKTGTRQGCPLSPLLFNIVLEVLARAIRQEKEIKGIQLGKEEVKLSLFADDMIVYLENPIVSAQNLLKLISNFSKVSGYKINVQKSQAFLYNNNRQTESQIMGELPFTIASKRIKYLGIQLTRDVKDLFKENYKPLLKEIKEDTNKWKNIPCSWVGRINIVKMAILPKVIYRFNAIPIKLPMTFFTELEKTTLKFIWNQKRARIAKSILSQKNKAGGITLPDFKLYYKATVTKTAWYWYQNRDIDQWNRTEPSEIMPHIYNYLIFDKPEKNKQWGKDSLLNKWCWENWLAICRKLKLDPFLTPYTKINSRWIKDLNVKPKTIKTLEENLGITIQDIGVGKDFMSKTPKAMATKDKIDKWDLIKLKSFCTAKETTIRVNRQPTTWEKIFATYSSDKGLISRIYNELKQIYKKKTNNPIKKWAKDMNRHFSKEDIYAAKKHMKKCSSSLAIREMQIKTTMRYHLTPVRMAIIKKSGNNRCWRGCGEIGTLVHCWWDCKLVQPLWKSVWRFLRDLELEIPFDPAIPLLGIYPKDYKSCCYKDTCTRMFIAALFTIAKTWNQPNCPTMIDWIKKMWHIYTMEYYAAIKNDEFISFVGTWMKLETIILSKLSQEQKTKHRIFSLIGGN

B1: Synthetic template RNA (74 nt) with 8 nt DNA primer extended to 13 nt, ending in ddG (mixed)
RNA: GCAGACUGCGUAGGCGUGCAGGAACCUGCACGCCUACGCAGUCUGCAAAAAAAAAAAAAAACAAUAUCGGCGCG
DNA: CGCGCCGATATTG
modifications: 3' dideoxyguanosine on the cDNA strand
- binding result: binds
